The record followed here is patent US20160324977A1.

The target in this experiment is purified human fibrinogen (human) (UniProt P02671). In words: cell-based or functional assay.

Where no end group is shown, it is not given here.

Chain of purified human fibrinogen (human) (P02671 20-629 limits assumed, chain 1 of 3): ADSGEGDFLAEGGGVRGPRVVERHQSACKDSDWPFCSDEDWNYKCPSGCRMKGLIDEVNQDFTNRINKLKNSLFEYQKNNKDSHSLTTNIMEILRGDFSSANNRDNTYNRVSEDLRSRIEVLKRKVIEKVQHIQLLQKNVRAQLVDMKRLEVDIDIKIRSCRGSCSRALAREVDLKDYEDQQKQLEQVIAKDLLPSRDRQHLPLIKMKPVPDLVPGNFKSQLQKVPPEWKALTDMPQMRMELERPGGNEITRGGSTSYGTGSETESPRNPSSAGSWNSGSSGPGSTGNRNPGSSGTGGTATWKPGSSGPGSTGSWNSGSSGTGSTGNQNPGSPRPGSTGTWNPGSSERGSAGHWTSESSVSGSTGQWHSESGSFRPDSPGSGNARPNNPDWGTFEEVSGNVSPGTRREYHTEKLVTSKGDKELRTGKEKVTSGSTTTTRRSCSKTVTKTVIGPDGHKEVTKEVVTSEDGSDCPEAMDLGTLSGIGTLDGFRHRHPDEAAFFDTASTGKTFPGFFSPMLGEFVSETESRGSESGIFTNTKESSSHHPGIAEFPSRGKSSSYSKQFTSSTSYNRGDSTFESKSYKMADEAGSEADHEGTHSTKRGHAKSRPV
Chain of purified human fibrinogen (human) (P02675 31-491 limits assumed, chain 2 of 3, further chain): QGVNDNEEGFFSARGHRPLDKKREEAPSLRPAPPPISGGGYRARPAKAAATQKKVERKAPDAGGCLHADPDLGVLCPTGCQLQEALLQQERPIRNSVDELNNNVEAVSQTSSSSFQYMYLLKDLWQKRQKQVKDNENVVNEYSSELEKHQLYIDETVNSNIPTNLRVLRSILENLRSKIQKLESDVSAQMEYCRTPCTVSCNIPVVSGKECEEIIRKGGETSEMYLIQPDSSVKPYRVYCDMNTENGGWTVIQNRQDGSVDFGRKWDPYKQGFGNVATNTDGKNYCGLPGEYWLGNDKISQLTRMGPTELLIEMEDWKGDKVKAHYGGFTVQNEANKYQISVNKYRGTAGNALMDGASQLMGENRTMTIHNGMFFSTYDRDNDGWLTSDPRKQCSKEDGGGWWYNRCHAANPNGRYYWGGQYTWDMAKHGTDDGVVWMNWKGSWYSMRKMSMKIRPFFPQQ
Chain of purified human fibrinogen (human) (P02679 other isoform, or with tags, fused parts or gaps limits assumed, chain 3 of 3, further chain): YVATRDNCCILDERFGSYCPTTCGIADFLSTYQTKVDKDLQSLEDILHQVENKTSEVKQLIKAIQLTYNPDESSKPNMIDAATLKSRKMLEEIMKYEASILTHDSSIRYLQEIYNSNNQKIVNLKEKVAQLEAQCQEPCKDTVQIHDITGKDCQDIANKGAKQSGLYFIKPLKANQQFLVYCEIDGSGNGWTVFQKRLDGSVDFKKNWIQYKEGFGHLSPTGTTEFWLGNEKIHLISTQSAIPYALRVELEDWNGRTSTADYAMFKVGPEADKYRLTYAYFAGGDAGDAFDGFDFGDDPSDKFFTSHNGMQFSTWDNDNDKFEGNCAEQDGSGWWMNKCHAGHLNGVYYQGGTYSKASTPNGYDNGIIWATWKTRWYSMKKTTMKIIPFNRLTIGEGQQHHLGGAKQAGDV

B1: Peptide dendrimer No. 13 (peptide, part only)
chain 1: GPRPG
chain 2: GHRPY
modifications: not fully specified (C-terminus); also: chimeric four-branch dendrimer: two copies of each chain, C-termini attached to a branched core of undefined make-up
Molecule B1 gave a Clotting activity (seconds), non-irradiated control of 4.3 s; a Clotting activity (seconds), storage for 2 weeks post irradiation of 9.4 s; a Clotting activity (seconds), storage for 4 weeks post irradiation of 10 s.
